Numbering of substitutions follows the chain as printed. Several values for one entry are separate records, joined by “and”; a condition that tells them apart may be missing. Equal entries are not always repeated.
B1: AB-000317 (antibody, V domains shown)
VH: QMQLVESGGGVVQPGRSLRLSCTASGFTFSTYAMHWVRQSPGQGLQWVAVISYHSTNKYYEDSVRGRFTISRDNSKNTLYLQMNSLRAEDTAVYYCARDGYSSSFFDFWGQGTLVTVSS
VL: DIQMTQSPSTLSASVGDRVAITCRASQSISRWLAWYQQQPGKAPKLLMSGASVLESGVPSRFSGSGSGTEFTLTISSLQPDDFATYYCQHYNSYFVTFGQGTKVEIK
B2: AB-007030 (antibody, V domains shown)
VH: B1 VH with Q46E, E61A
VL: B1 VL
B3: AB-007074 (antibody, V domains shown)
VH: B1 VH with T23A, S40A
VL: B1 VL with A20T, F95Y
B4: AB-007032 (antibody, V domains shown)
VH: B1 VH with M2V, T23A, S40A
VL: B1 VL with A20T, M48I
B5: AB-007062 (antibody, V domains shown)
VH: B1 VH
VL: B1 VL with R31S
B6: AB-007039 (antibody, V domains shown)
VH: B1 VH
VL: B1 VL with F95S
B7: AB-007035 (antibody, V domains shown)
VH: B1 VH with T31S
VL: B1 VL
B8: AB-007028 (antibody, V domains shown)
VH: B1 VH with T23A, S40A
VL: B1 VL with A20T
B9: AB-007038 (antibody, V domains shown)
VH: B1 VH with F108Y
VL: B1 VL
B10: AB-007072 (antibody, V domains shown)
VH: B1 VH
VL: B1 VL with V53N
B11: AB-007073 (antibody, V domains shown)
VH: B1 VH
VL: B1 VL with Y94H
B12: AB-007034 (antibody, V domains shown)
VH: B1 VH with M2V, T23A, S40A, Q46E, E61A
VL: B1 VL with A20T, M48I
B13: AB-007071 (antibody, V domains shown)
VH: B1 VH
VL: B1 VL with V53S
B14: AB-007033 (antibody, V domains shown)
VH: B1 VH with T23A, S40A, Q46E, E61A
VL: B1 VL with A20T
B15: AB-007031 (antibody, V domains shown)
VH: B1 VH
VL: B1 VL with M48I
B16: AB-007063 (antibody, V domains shown)
VH: B1 VH
VL: B1 VL with S49A
B17: AB-007036 (antibody, V domains shown)
VH: B1 VH with H54D
VL: B1 VL
B18: AB-007029 (antibody, V domains shown)
VH: B1 VH with M2V
VL: B1 VL
B19: AB-007037 (antibody, V domains shown)
VH: B1 VH with R65K
VL: B1 VL
B20: AB-007070 (antibody, V domains shown)
VH: B1 VH
VL: B1 VL with G50A
B21: AB-007061 (antibody, V domains shown)
VH: B1 VH
VL: B1 VL with S30D
B22: AB-007065 (antibody, V domains shown)
VH: B1 VH
VL: B1 VL with G50K
B23: AB-007068 (antibody, V domains shown)
VH: B1 VH
VL: B1 VL with G50L
B24: AB-007059 (antibody, V domains shown)
VH: B1 VH with S104T
VL: B1 VL

Biological target: … (Plasmodium falciparum)
Test: SPR, antibody on chip

Binder | Kd
B1 | 12900 nM and 15800 nM
B2 | 6520 nM
B3 | 12800 nM
B4 | 4830 nM
B5 | 25000 nM
B6 | 14700 nM
B7 | 9750 nM
B8 | 15900 nM
B9 | 13100 nM
B10 | 38700 nM
B11 | 16500 nM
B12 | 24100 nM
B13 | 23800 nM
B14 | 2580 nM
B15 | 5210 nM
B16 | 12200 nM
B17 | 17500 nM
B18 | 26200 nM
B19 | 2240 nM
B20 | 65300 nM
B21 | 14600 nM

Biological target: (NVDP)3(NANP)2 (Plasmodium falciparum)
Test: SPR, antibody on chip

Binder | Kd
B1 | 2590 nM and 2910 nM
B2 | 2570 nM
B22 | 12600 nM
B23 | 32400 nM
B3 | 3920 nM
B4 | 6540 nM
B5 | 6250 nM
B6 | 8250 nM
B7 | 2690 nM
B8 | 2350 nM
B9 | 3060 nM
B10 | 13800 nM
B11 | 19500 nM
B12 | 6710 nM
B13 | 4870 nM
B24 | 17500 nM
B14 | 2680 nM
B15 | 2590 nM
B16 | 3890 nM
B17 | 16700 nM
B18 | 4790 nM
B19 | 2690 nM
B20 | 11600 nM
B21 | 4000 nM

Biological target: (NPNA)3 (Plasmodium falciparum)
Test: SPR, antibody on chip

Binder | Kd
B1 | 4.91 nM and 11.2 nM
B2 | 6.88 nM
B22 | 125 nM
B23 | 111 nM
B3 | 8.94 nM
B4 | 13.6 nM
B5 | 10 nM
B6 | 112 nM
B7 | 5.73 nM
B8 | 5.37 nM
B9 | 8.97 nM
B10 | 73.9 nM
B11 | 72 nM
B12 | 17 nM
B13 | 10.2 nM
B24 | 174 nM
B14 | 8.02 nM
B15 | 8.02 nM
B16 | 14.1 nM
B17 | 33.5 nM
B18 | 11.3 nM
B19 | 7.14 nM
B20 | 80.3 nM
B21 | 6.69 nM

Biological target: (NANP)6 (Plasmodium falciparum)
Test: SPR, antibody on chip

Binder | Kd
B1 | 1.75 nM and 0.817 nM
B2 | 0.0537 nM
B22 | 0.238 nM
B23 | 1.56 nM
B3 | 0.665 nM
B4 | 1.96 nM
B5 | 0.338 nM
B6 | 0.143 nM
B7 | 0.757 nM
B8 | 0.166 nM
B9 | 0.0281 nM
B10 | 0.0376 nM
B11 | 0.871 nM
B12 | 0.932 nM
B13 | 0.433 nM
B24 | 0.266 nM
B14 | 0.0631 nM
B15 | 0.0384 nM
B16 | 0.194 nM
B17 | 0.0466 nM
B18 | 0.177 nM
B19 | 1.73 nM
B20 | 0.0786 nM
B21 | 0.0657 nM

Biological target: … (Plasmodium falciparum)
Test: BLI, target on sensor

Binder | Kd
B1 | 2.76 nM and 2.51 nM
B2 | 2.84 nM
B22 | 9.73 nM
B23 | 18.3 nM
B3 | 6.05 nM
B4 | 6.42 nM
B5 | 14.3 nM
B6 | 7.97 nM
B7 | 2.61 nM
B8 | 2.93 nM
B9 | 3.81 nM
B10 | 15.5 nM
B11 | 17.9 nM
B12 | 5.44 nM
B13 | 10.4 nM
B24 | 17.4 nM
B14 | 2.62 nM
B15 | 2.89 nM
B16 | 7.03 nM
B17 | 16.9 nM
B18 | 5.62 nM
B19 | 2.47 nM
B20 | 15.5 nM
B21 | 4.11 nM

Biological target: (NVDP)3(NANP)2 (Plasmodium falciparum)
Test: BLI, target on sensor

Binder | Kd
B1 | 4.27 nM and 3.73 nM
B2 | 4.03 nM
B22 | 9.71 nM
B23 | 17.1 nM
B3 | 7.96 nM
B4 | 6.68 nM
B5 | 13.6 nM
B6 | 7.26 nM
B7 | 5.09 nM
B8 | 4.26 nM
B9 | 5.82 nM
B10 | 14.5 nM
B11 | 18.1 nM
B12 | 6.14 nM
B13 | 11 nM
B24 | 19.8 nM
B14 | 3.47 nM
B15 | 3.5 nM
B16 | 9.73 nM
B17 | 17.4 nM
B18 | 6.67 nM
B19 | 4.44 nM
B20 | 14.4 nM
B21 | 5.68 nM

Biological target: (NPNA)3 (Plasmodium falciparum)
Test: BLI, target on sensor

Binder | Kd
B1 | 0.18 nM and 0.8 nM
B2 | 0.192 nM
B22 | 2.23 nM
B23 | 0.703 nM
B3 | 0.206 nM
B4 | 0.169 nM
B5 | 0.00796 nM
B6 | 0.812 nM
B7 | 0.322 nM
B8 | 0.0413 nM
B9 | 0.544 nM
B10 | 0.842 nM
B11 | 0.326 nM
B12 | 0.00372 nM
B13 | 0.694 nM
B24 | 0.478 nM
B14 | 0.154 nM
B15 | 0.003 nM
B16 | 0.691 nM
B17 | 0.00382 nM
B18 | 0.166 nM
B19 | 0.0035 nM
B20 | 0.68 nM
B21 | 0.00376 nM

Biological target: NANPNVDP (Plasmodium falciparum)
Test: BLI, target on sensor

Binder | Kd
B1 | 9.2 nM and 12.7 nM
B2 | 7.92 nM
B22 | 15.8 nM
B23 | 21.8 nM
B3 | 10.2 nM
B4 | 13.9 nM
B5 | 22.4 nM
B6 | 15.3 nM
B7 | 9.28 nM
B8 | 9.18 nM
B9 | 10.9 nM
B10 | 16.9 nM
B11 | 20.3 nM
B12 | 11.5 nM
B13 | 12.9 nM
B24 | 25.8 nM
B14 | 8.08 nM
B15 | 7.02 nM
B16 | 13.1 nM
B17 | 29.6 nM
B18 | 13.2 nM
B19 | 8.41 nM
B20 | 19.8 nM
B21 | 12.3 nM

Biological target: (NANP)6 (Plasmodium falciparum)
Test: BLI, target on sensor

Binder | Kd
B1 | 0.714 nM and 1.38 nM
B2 | 0.526 nM
B22 | 0.729 nM
B23 | 1.59 nM
B3 | 0.601 nM
B4 | 0.338 nM
B5 | 0.607 nM
B6 | 1.19 nM
B7 | 0.927 nM
B8 | 0.501 nM
B9 | 1.34 nM
B10 | 1.65 nM
B11 | 0.627 nM
B12 | 0.0899 nM
B13 | 1.66 nM
B24 | 1.41 nM
B14 | 0.303 nM
B15 | 0.0569 nM
B16 | 1.64 nM
B17 | 0.226 nM
B18 | 0.803 nM
B19 | 0.384 nM
B20 | 0.834 nM
B21 | 0.385 nM

Source: patent US20220195023A1
